The values below come from patent publication US20220386594A1 (IBI AG INNOVATIVE BIO INSECTICIDES, published 2022).

First the molecules themselves.
B1: VAT0101B (VHH)
VHH: QVQLQESGGGLVQAGGSLRLSCAASGSTLSGYIMSWFRQPPGKERELVAAITYVGSTYVEDSVKGRFTISRDNAKNTVSLQMNSLKPEDTAVYYCRAREGEQLDFWGQGTQVTVSS
notes: Llama nanobody, His-tagged, expressed in E. coli SHuffle T7; also called anti-VAT nanobody VAT0101B
B2: VAT0101G (VHH)
VHH: B1 VHH with L29F, Y58W, V59Y, E60Q
notes: Llama nanobody, His-tagged, expressed in E. coli SHuffle T7; also called VATO101G; anti-VAT nanobody VAT0101G
B3: VAT0101C (VHH)
VHH: B1 VHH with A14S, G16D, L29F
notes: Llama nanobody, His-tagged, expressed in E. coli SHuffle T7; also called anti-VAT nanobody VAT0101C
B4: VAT0101D (VHH)
VHH: B1 VHH with A14P, A23V, L29F
notes: Llama nanobody, His-tagged, expressed in E. coli SHuffle T7; also called anti-VAT nanobody VAT0101D
B5: VAT0101E (VHH)
VHH: B1 VHH with G16D, L29F
notes: Llama nanobody, His-tagged, expressed in E. coli SHuffle T7; also called anti-VAT nanobody VAT0101E
B6: VAT0101F (VHH)
VHH: B1 VHH with L11T, L29F
notes: Llama nanobody, His-tagged, expressed in E. coli SHuffle T7; also called anti-VAT nanobody VAT0101F
B7: CHS02A (VHH)
VHH: QVQLQESGGGLVQAGGSLRLSCAASRGTFSRYVMGWFRQGPGKEREFVAGISWSGISTYYADFVKGRFTISRDNAKNTVYLQMNSLKPEDTAVYYCAADPGRGYDYWGQGTQVTVSS
notes: Llama nanobody, His-tagged, expressed in E. coli SHuffle T7; also called CHS2a; anti-CHS nanobody CHS02A
B8: CHS18 (VHH)
VHH: QVQLQESGGGLVQAGGSLRLSCTASGRTFSSYSMAWFRQASGKEREIVAAVSRFGKFKYYADSVKGRFTISRDNAKNTLYLQMNSLKPEDTAVYYCAKTDGSSWYLDYWGQGTQVTVSS
notes: Llama nanobody, His-tagged, expressed in E. coli SHuffle T7; also called anti-CHS nanobody CHS18
B9: CHS13 (VHH)
VHH: QVQLQESGGGLVQAGGSLRLSCTVSGGTFTTYTMAWFRQAPGKEREFVAQISWSGGITAYLDSVKGRFTISRDNAKNTVYLQMNSLKPEDTAVYYCARRGRKYEDDYWGQGTQVTVSS
notes: Llama nanobody, His-tagged, expressed in E. coli SHuffle T7; also called anti-CHS nanobody CHS13
B10: CHS01A (VHH)
VHH: QVQLQESGGGLVQAGGSLRLSCSASTSIASINAVGWYRQAPGKQRELVAVIVNGSTTRYADSVKGRFTISGDNAENTVPLLMSSLKPEDTAIYYCGARDLSGTYWGQGTQVTVSS
notes: Llama nanobody, His-tagged, expressed in E. coli SHuffle T7; also called CHS1a; anti-CHS nanobody CHS01A
B11: CHS08 (VHH)
VHH: QVQLQESGGGLVQAGSSLRLSCAASGRTFRYHAMGWFRQAPGKEREFVAGISTSGGMTYYPDSVKGRFTISRDNAKNTLYLQMNSLKPGDTAVYYCAKFHGDKGYGSSWYYDYWGQGTQVTVSS
notes: Llama nanobody, His-tagged, expressed in E. coli SHuffle T7; also called CHS8; anti-CHS nanobody CHS08
B12: CHS22 (VHH)
VHH: QVQLQESGGGLVQAGGSLRLSCAASGGTFSGLTMGWFRQAPGKERDFVAAISWNGRFTYYKDSVKGRFAISRDNAKSTVYLQMTSLKPEDTAVYYCGADVLSGRGYRYWGQGTQVTVSS
notes: Llama nanobody, His-tagged, expressed in E. coli SHuffle T7; also called anti-CHS nanobody CHS22
B13: CHS24 (VHH)
VHH: QVQLQESGGGWVQPGGSLRLSCTISGLSRYYAMGWFRQVPGKERESVATISLRGGRTYYADSVEGRFTISRDNAKNTMYLQMNSLKPEDTAVYYCVADTTWGAPRSRYHYWGQGTQVTVSS
notes: Llama nanobody, His-tagged, expressed in E. coli SHuffle T7; also called anti-CHS nanobody CHS24
B14: TRH14 (VHH)
VHH: QVQLQESGGGLVQAGDSLRLSCAASGRPFSSYTMGWFRQAPGKEREFVAAISWSGGTTYYTDSVQGRFTISRDNAKNTVYLQMNRLKPEDTAVYYCATDVGRIYGGGSLYSSAFSYDYWGQGTQVTVSS
notes: Llama nanobody, His-tagged, expressed in E. coli SHuffle T7; also called anti-TRH nanobody TRH14
B15: TRH1A (VHH)
VHH: QVQLQESGGGLVQAGGSLRLSCATSGRAFTNYHMGWFRQTPGKEREFVALISWSGDSTRYADSVKGRFTISRDNAKRTVALQMDSLKPEDSAVYYCASRLVGQSQYEVWGQGTQVTVSS
notes: Llama nanobody, His-tagged, expressed in E. coli SHuffle T7; also called anti-TRH nanobody TRH1A
B16: TRH13 (VHH)
VHH: QVQLQESGGGLVQAGGSLRLTCAATVRIFSSYTMGWFRQSPGKEREFVGAITWSGGNTYYADSVKGRFTISRDNAKNTVYLQMNSLKSEDTAVYYCAADPGRSYVLSRYYDQASYDYWGQGTQVTVSS
notes: Llama nanobody, His-tagged, expressed in E. coli SHuffle T7; also called anti-TRH nanobody TRH13
B17: TRH12 (VHH)
VHH: QVQLQESGGGLVQAGGSLRLSCAASTSTVSDYHMGWFRQGPGKEREFVAAISWSGDSTDYADSVKARFTISRDNAKKTMSLQMNSLKPEDTAAYYCAARRVFKATWDYWGQGTQVTVSS
notes: Llama nanobody, His-tagged, expressed in E. coli SHuffle T7; also called anti-TRH nanobody TRH12
B18: NPC07A01 (VHH)
VHH: QVQLQESGGGLVQAGDSLRISCKASGRTFSSYPIGWFRQAPGKEREFVAAISRSGGRTYYADSVKGRLTISRDNAKNTVYLQMNSLKLEDTAVYYCAAKTTMGLPVGGTYEYDYWGQGTQVTVSS
notes: Llama nanobody, His-tagged, expressed in E. coli SHuffle T7; also called NPC7a; anti-NPC nanobody NPC07A01
B19: NPC01C01 (VHH)
VHH: QVQLQESGGGLVQVGGSLRISCVASGRTGSYYAMGWFRQAPGKEREFVAAISWNGGMTDYADFVKGRFAISRDNAKTVSLQMNNLKPEDTALYYCTAGPARRSYSYRDGYDYWGQGTQVTVSS
notes: Llama nanobody, His-tagged, expressed in E. coli SHuffle T7; also called NPC1c; anti-NPC nanobody NPC01C01
B20: NPC0901 (VHH)
VHH: QVQLQESGGGLVQAGDSLRISCKASGRTFSNYPIGWFRQAPGKEREFVAAISRSGGGTRYADSVKGRFTISRDNAKNTVYLQMNSLKRDDTAVYYCAAYFGNLGGGVGRSSDYDYWGQGTQVTVSS
notes: Llama nanobody, His-tagged, expressed in E. coli SHuffle T7; also called NPC9; anti-NPC nanobody NPC0901
B21: NPC04C01 (VHH)
VHH: QVQLQESGGGLVQAGGSLRLSCAASGRTFSSYVMGWFRQAPGKERELIGAINRSSTRLYYADSVKGRFSISRDNAKSTVYLQMNSLKPEDTAVYYCAADLVSILGKGYRDVDYWGQGTQVTVSS
notes: Llama nanobody, His-tagged, expressed in E. coli SHuffle T7; also called NPC4c; NPC4C
B22: NPC04D01 (VHH)
VHH: B21 VHH with A14P, L20V, R27F, T28S, S31N
notes: Llama nanobody, His-tagged, expressed in E. coli SHuffle T7; also called NPC4d; NPC4D

Substitutions are numbered along the chain they refer to.

One assay addresses T1, Helicoverpa armigera V-ATPase subunit c (Helicoverpa armigera).
T1 construct: also called V-ATPases Subunit C; ATPase V subunit c
T1 chain: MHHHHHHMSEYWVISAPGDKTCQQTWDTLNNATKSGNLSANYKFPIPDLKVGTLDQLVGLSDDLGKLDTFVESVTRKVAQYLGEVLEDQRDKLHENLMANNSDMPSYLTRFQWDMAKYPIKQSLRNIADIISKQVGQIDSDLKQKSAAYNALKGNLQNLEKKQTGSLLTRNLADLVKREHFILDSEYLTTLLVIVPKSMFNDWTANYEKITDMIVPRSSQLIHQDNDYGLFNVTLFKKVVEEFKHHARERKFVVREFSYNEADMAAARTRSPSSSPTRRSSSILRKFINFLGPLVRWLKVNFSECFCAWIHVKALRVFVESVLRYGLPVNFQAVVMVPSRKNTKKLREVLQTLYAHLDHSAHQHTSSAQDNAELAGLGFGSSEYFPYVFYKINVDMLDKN
As to the kind of experiment: ELISA, plate coated with 10 ug/ml target protein, 2 ug/ml nanobody, anti-VHH-HRP, A450.
As for B1, the binding result is “binds”.

Consider B2, for which the binding result is “binds”.

As to B3, the binding result was “binds”.

For the molecule B4, the binding result is recorded as “binds”.

As to B5, the binding result is given as “binds”.

For B6, the binding result was “binds”.

The next assay concerns the target T2, Helicoverpa armigera chitin synthase (Helicoverpa armigera).
T2 construct: the tag is not part of the printed entry; also called CHS; target CHS antigen
T2 chain: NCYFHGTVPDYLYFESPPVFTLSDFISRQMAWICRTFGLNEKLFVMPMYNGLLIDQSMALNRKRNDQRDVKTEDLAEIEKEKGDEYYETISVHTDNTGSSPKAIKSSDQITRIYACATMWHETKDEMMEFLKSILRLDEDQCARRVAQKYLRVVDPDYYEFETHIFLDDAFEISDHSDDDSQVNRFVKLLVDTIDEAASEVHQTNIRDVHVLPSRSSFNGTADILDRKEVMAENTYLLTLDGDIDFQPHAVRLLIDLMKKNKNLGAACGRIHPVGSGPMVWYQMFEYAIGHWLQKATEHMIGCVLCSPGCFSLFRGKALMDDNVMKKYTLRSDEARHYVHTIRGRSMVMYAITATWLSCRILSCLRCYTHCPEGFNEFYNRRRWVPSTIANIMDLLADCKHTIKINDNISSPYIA
The description is as above.
As for B7, the binding result is “binds”.

On to B8, for which the binding result is reported as “binds”.

On to B9, for which the binding result is reported as “binds”.

As for B10, the binding result is reported as “binds”.

B11: the binding result was “binds”.

Regarding B12, the binding result is “binds”.

Consider B13, for which the binding result was “binds”.

The target of another assay is T3, Helicoverpa armigera trehalase (Helicoverpa armigera).
T3 construct: the tag is not part of the printed entry; also called TRH; target TRH antigen
T3 chain: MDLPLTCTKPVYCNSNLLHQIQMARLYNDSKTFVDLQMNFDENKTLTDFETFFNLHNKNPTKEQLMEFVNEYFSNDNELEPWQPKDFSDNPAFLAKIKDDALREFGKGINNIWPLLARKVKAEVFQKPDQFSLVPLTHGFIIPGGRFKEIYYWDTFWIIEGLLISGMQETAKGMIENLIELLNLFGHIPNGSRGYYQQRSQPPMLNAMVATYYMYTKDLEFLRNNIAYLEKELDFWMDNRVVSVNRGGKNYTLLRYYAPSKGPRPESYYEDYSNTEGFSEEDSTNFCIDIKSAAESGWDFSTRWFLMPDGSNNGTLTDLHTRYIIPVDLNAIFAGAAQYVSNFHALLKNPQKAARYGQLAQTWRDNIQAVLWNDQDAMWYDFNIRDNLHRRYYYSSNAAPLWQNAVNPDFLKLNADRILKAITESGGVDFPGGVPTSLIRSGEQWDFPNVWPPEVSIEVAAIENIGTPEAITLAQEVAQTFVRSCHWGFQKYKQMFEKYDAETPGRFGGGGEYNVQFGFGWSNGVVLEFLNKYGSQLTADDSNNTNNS
The description is as above.
Turning to B14, the binding result is listed as “binds”.

In the case of B15, the binding result is given as “binds”.

For the molecule B16, the binding result is recorded as “binds”.

As to B17, the binding result is recorded as “binds”.

The target of another assay is T4, Helicoverpa armigera NPC1 sterol transporter (Helicoverpa armigera).
T4 construct: the tag is not part of the printed entry; also called target NPC antigen; target NPC1 antigen
T4 chain: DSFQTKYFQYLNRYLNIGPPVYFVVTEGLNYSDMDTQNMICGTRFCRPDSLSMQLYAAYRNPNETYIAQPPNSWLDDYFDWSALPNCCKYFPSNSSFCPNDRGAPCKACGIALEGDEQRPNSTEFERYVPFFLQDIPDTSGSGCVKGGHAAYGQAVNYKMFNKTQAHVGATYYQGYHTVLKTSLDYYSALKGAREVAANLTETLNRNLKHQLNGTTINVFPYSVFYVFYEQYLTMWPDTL
The assay is described as above.
For the molecule B18, the binding result was “binds”.

Consider B19, for which the binding result was “binds”.

Regarding B20, the binding result is “binds”.

As for B21, the binding result was “binds”.

With B22, the binding result is “binds”.
